Test results from US11021533 (VANDERBILT UNIVERSITY, dated 2021).

B1: ZIKV-216 (antibody, V domains shown)
VH: EVQLVQSGAEGKKPGESLKISCKGSGYNFSNYWIGWVRQMPGKGLEWMGIIYPGDSDTRYSPSFQGQVTISADKSINTAYLQWRSLRASDSAMFYCARGVMITTPNPYDWFDAWGQGTLVTVSS
VL: QSALTQPASVSGSPGQSITISCTGTGSDIGTYDYVSWYQQHPGKAPKLMIYGVTKRPSGVSHRFSGSKSVNTASLTISGLQAEDEADYFCSSYSTSSTFVVFGGGTKLTVL
B2: ZIKV-117 (antibody, V domains shown)
VH: QVQLVESGGGVVRPGGSLRLSCAASGFTFKNYGIHWVRQAPGKGPEWVAFVRYDGNNKYYADSVKGRFTISRDNAKNTLSLQMNSLRVEDTAVYFCARDPETFGGFDYWGQGTLVTVSS
VL: ETVMTQSPATLSVSPGERGTLSCRASESVSSNLAWYQQKPGKAPRLLIYGASTRATGIPDRFSGSGSGTEFTLTISSLQSEDFAVYYCQQYYYSPRTFGQGTKVEVK
B3: ZIKV-116 (antibody, V domains shown)
VH: EVKLVESGRGLVRPGGSLRLSCAASGFTFSNYAMSWVRQGPGMGLEWVSTITADSDSKYYVDSVKGRFTISRDNSKDTLFLHMTSLRAEDTAVYYCAKDRLSRGVGELYDSWGQGTLVTVSQ
VL: DIQMTQSPSTLSASVGDRVTITCRASQSIDVWLAWYQQKPGKAPKLLMYKTSTLQTGVPSRFSGSGSGTEFTLTISSLQTDDFATYYCQKYDSYPWTFGPGTKVEIK
B4: ZIKV-195 (antibody, V domains shown)
VH: QVQVVESGGGVVQPGRSLRLSCAASGFTFSSSAMHWVRQAPGKGLEWVAVISYDGSNKYYGDSVKGRFTISRDNSKNTLYLQMHSLRAEDTAVYYCAKDRDAYNTVGYFAYYYGMDVWGQGTLVTVSS
VL: QSVLTQPPSVSEAPRQRVTISCSGSSSNIGNNAVNWYQQLPGKAPKLLIYYDDLLPSGVSDRFSGSKSGTSASLAISGLQSEDEADYYCAAWDDSLTRYVFGTGTKVTVL

Molecular target: ZIKV strain H/PF/2013 (French Polynesia, 2013) virus (Zika virus, strain H/PF/2013)
Test: cell-based or functional assay

| Binder | FRNT50 (focus reduction neutralization test on Vero cells) |
| --- | --- |
| B1 | 16 ng/mL |
| B2 | 5 ng/mL |
| B3 | 16 ng/mL |
| B4 | 346 ng/mL |
